Molecular target: the molecule itself
Assay: cryo-EM structure; purified f1pIV (~0.7 mg/ml) in 1% CHAPS, 25 mM Na HEPES pH 8.0, 500 mM NaCl, 0.5 mM EDTA, on graphene oxide-coated lacey carbon grids; 2D class averages and a 3D reconstruction with C15 symmetry, 2.7 Å

B1: f1 pIV secretin (His-tagged f1pIV with the stabilizing S318I mutation) (natural protein, bacteriophage f1, UniProt P03666 22-426, looked up)
chain: QVIEMNNSSLRDFVTWYSKQTGESVIVSPDVKGTVTVYSSDVKPENLRDFFISVLRANNFDMVGSIPSIIQKYNPNNQDYIDELPSSDNQEYDDNSAPSGGFFVPQNDNVTQTFKINNVRAKDLIRVVELFVKSNTSKSSNVLSVDGSNLLVVSAPKDILDNLPQFLSTVDLPTDQILIEGLIFEVQQGDALDFSFAAGSQRGTVAGGVNTDRLTSVLSSAGGSFGIFNGDVLGLSVRALKTNSHSKILSVPRILTLSGQKGSISVGQNVPFITGRVTGESANVNNPFQTVERQNVGISMSVFPVAMAGGNIVLDITIKADSLSSSTQASDVITNQRSIATTVNLRDGQTLLLGGLTDYKNTSQDSGVPFLSKIPLIGLLFSSRSDSNEESTLYVLVKATIVRAL
notes: pIV secretin (gene IV protein, virion export protein) of filamentous bacteriophage f1; mature protein of 405 residues (N0 1-88, linker 89-107, N3 108-172, linker 173-174, secretin domain 175-405); S318 is residue 339 of the precursor (318 + 21 signal residues); also called f1pIV secretin channel; copies: 15
- stoichiometry N: 15

Source: paper PMC8563730, “CryoEM structure of the outer membrane secretin channel pIV from the f1 filamentous bacteriophage” (Nature Communications, 2021)
